According to PMC8962251 (Biomedicines, 2022):
Where no end group is shown, it is not given here.

Key:
[1] = target: T1, SARS-CoV-2 S1S2-His (monomeric S1S2 spike protein) (SARS-CoV-2, UniProt P0DTC2 14-1213); assay: SPR; conditions: both partners purified
T1 construct: source: High Five insect cells, purified (HisExcel, SEC)

[2] = target: T2, SARS-CoV-2 RBD (High Five insect cells, 6x His-tag) (SARS-CoV-2, UniProt P0DTC2); assay: SPR; conditions: both partners purified
T2 construct: source: High Five insect cells, purified (HisExcel, SEC)

B1: CVRBDL-3 (peptide)
peptide: HDFWWEYDKKNDTWTRRRR-NH2
notes: also called CVRDBL-3; CVRBD-3; source: synthetic peptide; bought: CASLO
- stoichiometry N [1]: 1
- stoichiometry N [2]: 1
